# Assay results taken from the supplement of paper PMC11246515.
# ± gives the standard deviation of the averaged measurements.
# Assay: total protein half-life in vivo (active degradation + dilution); higher = more stable protein
# [1] = E. coli NCM3722 delta-clpP delta-lon delta-hslV, growth: N-lim chemostat, doubling time 6 h
# [2] = E. coli NCM3722 delta-clpP, growth: N-lim chemostat, doubling time 6 h
# [3] = wild type E. coli NCM3722, growth: C-lim chemostat, doubling time 3 h
# [4] = wild type E. coli NCM3722, growth: C-lim chemostat, doubling time 6 h
# [5] = wild type E. coli NCM3722, growth: C-lim chemostat, doubling time 12 h
# [6] = wild type E. coli NCM3722, growth: P-lim chemostat, doubling time 6 h
# [7] = E. coli NCM3722 delta-hslV, growth: N-lim chemostat, doubling time 6 h
# [8] = E. coli NCM3722 delta-lon, growth: N-lim chemostat, doubling time 6 h
# [9] = E. coli NCM3722 delta-smpB, growth: N-lim chemostat, doubling time 6 h
# [10] = wild type E. coli NCM3722, growth: N-lim chemostat, doubling time 6 h
# [11] = wild type E. coli NCM3722, growth: N-lim chemostat, doubling time 12 h
# [12] = wild type E. coli NCM3722, growth: P-lim chemostat, doubling time 12 h
Sequence,total protein half-life in vivo [1] [h],total protein half-life in vivo [2] [h],total protein half-life in vivo [3] [h],total protein half-life in vivo [4] [h],total protein half-life in vivo [5] [h],total protein half-life in vivo [6] [h],total protein half-life in vivo [7] [h],total protein half-life in vivo [8] [h],total protein half-life in vivo [9] [h],total protein half-life in vivo [10] [h],total protein half-life in vivo [11] [h],total protein half-life in vivo [12] [h]
MSNLTGTDKSVILLMTIGEDRAAEVFKHLSQREVQTLSAAMANVTQISNKQLTDVLAEFEQEAEQFAALNINANDYLRSVLVKALGEERAASLLEDILETRDTASGIETLNFMEPQSAADLIRDEHPQIIATILVHLKRAQAADILALFDERLRHDVMLRIATFGGVQPAALAELTEVLNGLLDGQNLKRSKMGGVRTAAEIINLMKTQQEEAVITAVREFDGELAQKIIDEMFLFENLVDVDDRSIQRLLQEVDSESLLIALKGAEQPLREKFLRNMSQRAADILRDDLANRGPVRLSQVENEQKAILLIVRRLAETGEMVIGSGEDTYV [P0ABZ1],4.83,5.19,2.31 ± 0.33,3.78 ± 0.1,5.85 ± 0.23,,,,,,,
MLRHITFTVFITTSMNTLATGMVPETSVLLVDEKRGEASINIKNTDDHPSLLYTTIVDLPESNKSIRLIPTQPVIRVEAGQVQQVRFLLQATVPLQSEELKRVTFEGIPPKDDKSSRVTVSIRQDLPVLIHPASLPEERETWKFLEWRKNGDQIEISNPSNYVVRMTLQFKTLPSGKTGAINKTYFLPHTSTTTALTNATDTKVEFYPASRYGYRGNKYVTDLK,,,,,,4.81,,,,,,
MSTFKPLKTLTSRRQVLKAGLAALTLSGMSQAIAKDELLKTSNGHSKPKAKKSGGKRVVVLDPGHGGIDTGAIGRNGSKEKHVVLAIAKNVRSILRNHGIDARLTRSGDTFIPLYDRVEIAHKHGADLFMSIHADGFTNPKAAGASVFALSNRGASSAMAKYLSERENRADEVAGKKATDKDHLLQQVLFDLVQTDTIKNSLTLGSHILKKIKPVHKLHSRNTEQAAFVVLKSPSVPSVLVETSFITNPEEERLLGTAAFRQKIATAIAEGVISYFHWFDNQKAHSKKR,5.02 ± 0.67,5.75 ± 0.35,2.23 ± 0.033,3.5509 ± 0.0011,5 ± 0.2,4.48 ± 0.47,4.89 ± 0.52,4.977 ± 0.029,4.41 ± 0.32,5.08 ± 0.94,8.42 ± 0.29,8.52 ± 0.41
MQVSRRQFFKICAGGMAGTTAAALGFAPSVALAETRQYKLLRTRETRNTCTYCSVGCGLLMYSLGDGAKNAKASIFHIEGDPDHPVNRGALCPKGAGLVDFIHSESRLKFPEYRAPGSDKWQQISWEEAFDRIAKLMKEDRDANYIAQNAEGVTVNRWLSTGMLCASASSNETGYLTQKFSRALGMLAVDNQARVUHGPTVASLAPTFGRGAMTNHWVDIKNANLVVVMGGNAAEAHPVGFRWAMEAKIHNGAKLIVIDPRFTRTAAVADYYAPIRSGTDIAFLSGVLLYLLNNEKFNREYTEAYTNASLIVREDYGFEDGLFTGYDAEKRKYDKSSWTYELDENGFAKRDTTLQHPRCVWNLLKQHVSRYTPDVVENICGTPKDAFLKVCEYIAETSAHDKTASFLYALGWTQHSVGAQNIRTMAMIQLLLGNMGMAGGGVNALRGHSNIQGLTDLGLLSQSLPGYMTLPSEKQTDLQTYLTANTPKPLLEGQVNYWGNYPKFFVSMMKAFFGDKATAENSWGFDWLPKWDKGYDVLQYFEMMKEGKVNGYICQGFNPVASFPNKNKVIGCLSKLKFLVTIDPLNTETSNFWQNHGELNEVDSSKIQTEVFRLPSTCFAEENGSIVNSGRWLQWHWKGADAPGIALTDGEILSGIFLRLRKMYAEQGGANPDQVLNMTWNYAIPHEPSSEEVAMESNGKALADITDPATGAVIVKKGQQLSSFAQLRDDGTTSCGCWIFAGSWTPEGNQMARRDNADPSGLGNTLGWAWAWPLNRRILYNRASADPQGNPWDPKRQLLKWDGTKWTGWDIPDYSAAPPGSGVGPFIMQQEGMGRLFALDKMAEGPFPEHYEPFETPLGTNPLHPNVISNPAARIFKDDAEALGKADKFPYVGTTYRLTEHFHYWTKHALLNAILQPEQFVEIGESLANKLGIAQGDTVKVSSNRGYIKAKAVVTKRIRTLKANGKDIDTIGIPIHWGYEGVAKKGFIANTLTPFVGDANTQTPEFKSFLVNVEKV,5.155 ± 0.0061,4.77 ± 0.55,> 4,5.8,11.4 ± 0.86,4.79 ± 0.5,6.6,5.502 ± 0.033,4.72,5.89,10.4 ± 0.35,8.459 ± 0.046
MTHKATEILTGKVMQKSVLITGCSSGIGLESALELKRQGFHVLAGCRKPDDVERMNSMGFTGVLIDLDSPESVDRAADEVIALTDNCLYGIFNNAGFGMYGPLSTISRAQMEQQFSANFFGAHQLTMRLLPAMLPHGEGRIVMTSSVMGLISTPGRGAYAASKYALEAWSDALRMELRHSGIKVSLIEPGPIRTRFTDNVNQTQSDKPVENPGIAARFTLGPEAVVDKVRHAFISEKPKMRYPVTLVTWAVMVLKRLLPGRVMDKILQG [P0AFP4],6.09 ± 0.25,6.01 ± 0.54,3.07 ± 0.11,6.19 ± 0.11,13.6 ± 1.8,6.027 ± 0.025,5.32 ± 1.6,6.02 ± 0.67,5.568 ± 0.03,6.01 ± 0.4,11.9 ± 0.34,10.4 ± 1.3
MANRMILNETAWFGRGAVGALTDEVKRRGYQKALIVTDKTLVQCGVVAKVTDKMDAAGLAWAIYDGVVPNPTITVVKEGLGVFQNSGADYLIAIGGGSPQDTCKAIGIISNNPEFADVRSLEGLSPTNKPSVPILAIPTTAGTAAEVTINYVITDEEKRRKFVCVDPHDIPQVAFIDADMMDGMPPALKAATGVDALTHAIEGYITRGAWALTDALHIKAIEIIAGALRGSVAGDKDAGEEMALGQYVAGMGFSNVGLGLVHGMAHPLGAFYNTPHGVANAILLPHVMRYNADFTGEKYRDIARVMGVKVEGMSLEEARNAAVEAVFALNRDVGIPPHLRDVGVRKEDIPALAQAALDDVCTGGNPREATLEDIVELYHTAW [P0A9S1],4.47 ± 0.099,3.35 ± 0.51,3.02 ± 0.11,5.64 ± 0.23,10.6 ± 0.27,5.483 ± 0.014,3.392 ± 0.0085,4.76 ± 0.29,2.66 ± 0.051,4.48 ± 1,4.94 ± 0.27,10.2 ± 0.13
MATGKSCSRWFAPLAALLMVVSLSGCFDKEGDQRKAFIDFLQNTVMRSGERLPTLTADQKKQFGPFVSDYAILYGYSQQVNQAMDSGLRPVVDSVNAIRVPQDYVTQSGPLREMNGSLGVLAQQLQNAKLQADAAHSALKQSDDLKPVFDQAFTKVVTTPADALQPLIPAAQTFTQQLVMVGDYIAQQGTQVSFVANGIQFPTSQQASEYNKLIAPLPAQHQAFNQAWTTAVTATQ [P0ADK0],6.1 ± 0.091,,3.007 ± 0.025,6.13 ± 0.24,13.5 ± 1.5,5.88 ± 0.16,6.34 ± 0.47,6.34 ± 0.28,6.1 ± 0.9,5.79 ± 0.17,12.5 ± 0.65,12.5 ± 1.1
MRVENNNVSGQNHDPEQIDLIDLLVQLWRGKMTIIISVIVAIALAIGYLAVAKEKWTSTAIITQPDVGQIAGYNNAMNVIYGQAAPKVSDLQETLIGRFSSAFSALAETLDNQEEREKLTIEPSVKNQQLPLTVSYVGQTAEGAQMKLAQYIQQVDDKVNQELEKDLKDNIALGRKNLQDSLRTQEVVAQEQKDLRIRQIQEALQYANQAQVTKPQIQQTGEDITQDTLFLLGSEALESMIKHEATRPLVFSPNYYQTRQNLLDIESLKVDDLDIHAYRYVMKPMLPIRRDSPKKAITLILAVLLGGMVGAGIVLGRNALRNYNAK,6.28 ± 0.95,6.967 ± 0.025,3.05 ± 0.051,5.61 ± 0.062,11.1 ± 1.2,5.97 ± 0.15,6.99 ± 0.87,6.083 ± 0.046,6.13 ± 0.13,6.07 ± 0.17,12 ± 1.5,12.1 ± 0.5
MVSRRVQALLDQLRAQGIQDEQVLNALAAVPREKFVDEAFEQKAWDNIALPIGQGQTISQPYMVARMTELLELTPQSRVLEIGTGSGYQTAILAHLVQHVCSVERIKGLQWQARRRLKNLDLHNVSTRHGDGWQGWQARAPFDAIIVTAAPPEIPTALMTQLDEGGILVLPVGEEHQYLKRVRRRGGEFIIDTVEAVRFVPLVKGELA [P0A7A5],5.04 ± 0.19,3.95 ± 0.35,2.7898 ± 0.0014,4.83 ± 2.6,8.88 ± 0.65,5.57 ± 0.56,4.65 ± 0.94,4.71 ± 0.85,3.64 ± 0.14,3.85 ± 0.078,6.43 ± 0.091,10.2 ± 0.73
MQDRNFDDIAEKFSRNIYGTTKGQLRQAILWQDLDRVLAEMGPQKLRVLDAGGGEGQTAIKMAERGHQVILCDLSAQMIDRAKQAAEAKGVSDNMQFIHCAAQDVASHLETPVDLILFHAVLEWVADPRSVLQTLWSVLRPGGVLSLMFYNAHGLLMHNMVAGNFDYVQAGMPKKKKRTLSPDYPRDPAQVYLWLEEAGWQIMGKTGVRVFHDYLREKHQQRDCYEALLELETRYCRQEPYITLGRYIHVTARKPQSKDKV,4.99 ± 0.24,4.498 ± 0.018,2.96 ± 0.23,5.46 ± 0.57,10.2 ± 0.95,5.32 ± 0.21,3.95 ± 0.13,4.57 ± 0.49,4.304 ± 0.012,4.21 ± 0.36,7.11 ± 0.55,11 ± 0.42
MTDLTAQEPAWQTRDHLDDPVIGELRNRFGPDAFTVQATRTGVPVVWIKREQLLEVGDFLKKLPKPYVMLFDLHGMDERLRTHREGLPAADFSVFYHLISIDRNRDIMLKVALAENDLHVPTFTKLFPNANWYERETWDLFGITFDGHPNLRRIMMPQTWKGHPLRKDYPARATEFSPFELTKAKQDLEMEALTFKPEEWGMKRGTENEDFMFLNLGPNHPSAHGAFRIVLQLDGEEIVDCVPDIGYHHRGAEKMGERQSWHSYIPYTDRIEYLGGCVNEMPYVLAVEKLAGITVPDRVNVIRVMLSELFRINSHLLYISTFIQDVGAMTPVFFAFTDRQKIYDLVEAITGFRMHPAWFRIGGVAHDLPRGWDRLLREFLDWMPKRLASYEKAALQNTILKGRSQGVAAYGAKEALEWGTTGAGLRATGIDFDVRKARPYSGYENFDFEIPVGGGVSDCYTRVMLKVEELRQSLRILEQCLNNMPEGPFKADHPLTTPPPKERTLQHIETLITHFLQVSWGPVMPANESFQMIEATKGINSYYLTSDGSTMSYRTRVRTPSFAHLQQIPAAIRGSLVSDLIVYLGSIDFVMSDVDR,6.01 ± 0.11,7.18 ± 1.1,3.32 ± 0.17,6.15 ± 0.1,11.43 ± 0.014,6.224 ± 0.032,5.883 ± 0.042,6.39 ± 0.17,6.2 ± 0.22,6.33 ± 0.14,12.22 ± 0.12,11.84 ± 0.096
MEKRTPHTRLSQVKKLVNAGQVRTTRSALLNADELGLDFDGMCNVIIGLSESDFYKSMTTYSDHTIWQDVYRPRLVTGQVYLKITVIHDVLIVSFKEK,5.29,,3.12,,,,,,5,,,13.2 ± 0.69
MIASKFGIGQQVRHSLLGYLGVVVDIDPVYSLSEPSPDELAVNDELRAAPWYHVVMEDDNGLPVHTYLAEAQLSSELQDEHPEQPSMDELAQTIRKQLQAPRLRN [P0AB20],3.23 ± 0.48,,,,,,,1.99 ± 0.27,,,,
MASSGTTSTRKRFTGAEFIVHFLEQQGIKIVTGIPGGSILPVYDALSQSTQIRHILARHEQGAGFIAQGMARTDGKPAVCMACSGPGATNLVTAIADARLDSIPLICITGQVPASMIGTDAFQEVDTYGISIPITKHNYLVRHIEELPQVMSDAFRIAQSGRPGPVWIDIPKDVQTAVFEIETQPAMAEKAAAPAFSEESIRDAAAMINAAKRPVLYLGGGVINAPARVRELAEKAQLPTTMTLMALGMLPKAHPLSLGMLGMHGVRSTNYILQEADLLIVLGARFDDRAIGKTEQFCPNAKIIHVDIDRAELGKIKQPHVAIQADVDDVLAQLIPLVEAQPRAEWHQLVADLQREFPCPIPKACDPLSHYGLINAVAACVDDNAIITTDVGQHQMWTAQAYPLNRPRQWLTSGGLGTMGFGLPAAIGAALANPDRKVLCFSGDGSLMMNIQEMATASENQLDVKIILMNNEALGLVHQQQSLFYEQGVFAATYPGKINFMQIAAGFGLETCDLNNEADPQASLQEIINRPGPALIHVRIDAEEKVYPMVPPGAANTEMVGE,2.91 ± 0.088,1.25 ± 0.025,2.4 ± 0.39,2.86 ± 0.38,4.64 ± 1.5,4.5,1.28 ± 0.21,1.6 ± 0.46,1.43 ± 0.086,1.4 ± 0.11,2.49,8.65 ± 1.8
